Assay results published in the supplement of paper PMC10567573.

B1: TRAF3IP2 (parent)
chain: YGHDYPRAAYQQVIQPALPGQPLP

Variants of: B1
Test: protein stability index of a GFP-peptide fusion (GPS, HEK-293T) (PSI 1-6); higher = more stable
Details: c terminus: a fixed tail appended
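Further: lentivirally expressed fusions sorted by FACS into six bins by GFP to DsRed ratio, PSI derived from sequencing read proportions per bin multiplied by bin number.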

Protein stability index: each site, then its substitutions
L23: D 2.18, V 2.5, G 1.77, F 2.15, A 2.62, M 2.59, K 2.2, N 2.09, C 2.21
H3: P 4.18, E 2.5, D 2.02, F 2.08, N 1.83, Y 1.74, W 1.69, S 2.2, C 1.86, A 2.05, I 1.83, L 1.86, Q 2.04, K 2.5
A9: W 1.15, M 1.98, D 2.74, C 2.34
L18: W 2.01, R 2.12, K 2.15, H 1.9, M 1.9, V 1.65, F 2.59, S 1.6
G2: L 2.6, H 2.46, Y 2.38, V 1.83, N 2.46, D 3.43, S 2.56
Y10: H 2.52, T 1.97, R 1.7, K 2.36, W 1.75, V 2.13, P 2.28, D 1.97, L 2, I 2.02, E 2.17, A 1.79, F 2.33, M 1.65
Q21: H 1.37, W 1.84, A 2.12, P 2.95, I 2.79, L 2.02, G 1.58, V 2.44, N 2.08, R 2.24, Y 1.88, M 2.67
G20: I 1.58, D 2.78, V 1.69, R 1.52, W 1.49, H 2.33, S 1.6
Y1: T 3.54, I 3.52, D 4.19, K 3.79, G 3.63, N 4.21
P22: W 1.26, G 3.86, A 1.93, Y 1.75, C 1.62
P19: N 2.07, H 1.65, R 1.76, D 1.98, M 2.34, F 2.44
P24: H 1.83, V 2.09, G 2.12, C 2, D 2.45, Y 1.6, R 1.89
Q12: A 1.96, K 2.37, N 1.65, E 1.48, Y 2.61, S 2.13, V 3.04
P6: I 1.69, S 2.6, M 1.79, G 3.41, A 2.44, L 1.73, D 3.52, F 1.81, T 2.73
D4: W 2.08, R 2.21, N 2.42, F 1.56, C 1.8, V 2.36, T 2.13, H 1.94, P 3.33, K 2.7, E 1.81, M 1.66
Q11: T 3.14, E 2.09, I 2.94, A 2.75, C 3.05, H 2.48
I14: S 2.09, Y 2.52, T 1.86, F 2.01, A 1.5, G 1.92, D 1.22, M 1.49, P 2.14
Q15: F 2.68, N 1.63, D 2.6, R 2.24, L 2.23, P 2.45, E 2.1, W 3.01, M 1.59
P16: G 1.54, A 1.94, M 1.89, Y 2.81, S 1.39, E 2.25, F 2.74, H 1.57, N 1.95, V 3.03, L 1.39, D 2.22
Y5: W 3.66, V 3.46, N 3.73
R7: D 3.34
